In publication PMC9992269 (Molecular cell, 2023):

T1: Ufd1/Npl4 heterodimer (wild type) (UniProt P53044 1-361; P33755 1-580)
T1 sequence (looked up) 1: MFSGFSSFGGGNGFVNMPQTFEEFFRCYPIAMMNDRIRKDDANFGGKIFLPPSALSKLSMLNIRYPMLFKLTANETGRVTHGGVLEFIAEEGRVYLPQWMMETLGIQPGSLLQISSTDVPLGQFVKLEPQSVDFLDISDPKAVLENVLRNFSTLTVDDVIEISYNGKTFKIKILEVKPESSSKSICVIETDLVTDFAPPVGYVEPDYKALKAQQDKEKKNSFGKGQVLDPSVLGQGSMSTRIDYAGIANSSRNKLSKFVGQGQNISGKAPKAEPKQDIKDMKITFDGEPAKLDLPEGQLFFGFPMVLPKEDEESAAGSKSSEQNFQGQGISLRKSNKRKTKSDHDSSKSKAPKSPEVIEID
T1 sequence (looked up) 2: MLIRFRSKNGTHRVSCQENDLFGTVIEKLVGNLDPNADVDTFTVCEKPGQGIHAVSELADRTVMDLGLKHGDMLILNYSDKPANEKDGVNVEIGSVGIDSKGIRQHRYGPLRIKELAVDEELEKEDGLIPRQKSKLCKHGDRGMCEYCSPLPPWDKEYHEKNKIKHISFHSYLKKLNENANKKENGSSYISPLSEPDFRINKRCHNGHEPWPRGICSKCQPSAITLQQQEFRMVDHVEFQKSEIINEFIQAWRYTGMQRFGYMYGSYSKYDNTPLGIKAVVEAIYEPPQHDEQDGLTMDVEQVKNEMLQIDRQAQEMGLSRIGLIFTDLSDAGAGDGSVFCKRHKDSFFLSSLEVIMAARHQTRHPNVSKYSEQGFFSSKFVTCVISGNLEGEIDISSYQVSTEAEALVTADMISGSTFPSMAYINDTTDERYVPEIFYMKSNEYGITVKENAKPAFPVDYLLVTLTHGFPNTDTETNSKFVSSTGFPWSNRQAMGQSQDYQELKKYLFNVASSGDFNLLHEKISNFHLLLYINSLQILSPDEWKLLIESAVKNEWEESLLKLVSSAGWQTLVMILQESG

T2: Ufd1^L55R/Npl4 (UniProt P53044 1-361; P33755 1-580, L55R)
T2 sequence (looked up) 1: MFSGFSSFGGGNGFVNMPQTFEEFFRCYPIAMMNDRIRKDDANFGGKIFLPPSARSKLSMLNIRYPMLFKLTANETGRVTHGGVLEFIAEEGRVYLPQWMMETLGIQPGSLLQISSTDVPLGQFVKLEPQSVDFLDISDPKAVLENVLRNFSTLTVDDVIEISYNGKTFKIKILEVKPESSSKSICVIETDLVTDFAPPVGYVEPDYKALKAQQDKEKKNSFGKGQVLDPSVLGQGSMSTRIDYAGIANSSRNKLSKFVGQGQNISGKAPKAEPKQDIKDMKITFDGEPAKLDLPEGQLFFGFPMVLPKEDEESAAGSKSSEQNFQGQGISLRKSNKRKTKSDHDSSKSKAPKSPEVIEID
T2 sequence (looked up) 2: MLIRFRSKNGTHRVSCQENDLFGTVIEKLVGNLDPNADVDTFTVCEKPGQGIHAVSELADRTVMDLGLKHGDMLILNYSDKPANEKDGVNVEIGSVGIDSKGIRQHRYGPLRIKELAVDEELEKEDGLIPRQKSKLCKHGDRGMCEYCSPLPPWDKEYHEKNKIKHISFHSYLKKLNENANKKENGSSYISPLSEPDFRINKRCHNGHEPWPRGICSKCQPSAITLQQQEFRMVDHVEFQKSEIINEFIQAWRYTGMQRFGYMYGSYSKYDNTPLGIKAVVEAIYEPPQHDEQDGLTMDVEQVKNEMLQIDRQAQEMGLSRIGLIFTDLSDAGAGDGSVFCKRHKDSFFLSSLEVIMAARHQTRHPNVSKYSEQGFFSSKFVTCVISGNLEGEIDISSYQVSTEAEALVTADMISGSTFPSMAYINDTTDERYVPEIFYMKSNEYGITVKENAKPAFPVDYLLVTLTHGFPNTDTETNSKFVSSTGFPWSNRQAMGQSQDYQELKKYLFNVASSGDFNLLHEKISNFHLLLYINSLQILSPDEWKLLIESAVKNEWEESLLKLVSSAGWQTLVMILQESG

T3: Npl4 (wild type, purified without Ufd1) (UniProt P33755 1-580)
T3 sequence (looked up): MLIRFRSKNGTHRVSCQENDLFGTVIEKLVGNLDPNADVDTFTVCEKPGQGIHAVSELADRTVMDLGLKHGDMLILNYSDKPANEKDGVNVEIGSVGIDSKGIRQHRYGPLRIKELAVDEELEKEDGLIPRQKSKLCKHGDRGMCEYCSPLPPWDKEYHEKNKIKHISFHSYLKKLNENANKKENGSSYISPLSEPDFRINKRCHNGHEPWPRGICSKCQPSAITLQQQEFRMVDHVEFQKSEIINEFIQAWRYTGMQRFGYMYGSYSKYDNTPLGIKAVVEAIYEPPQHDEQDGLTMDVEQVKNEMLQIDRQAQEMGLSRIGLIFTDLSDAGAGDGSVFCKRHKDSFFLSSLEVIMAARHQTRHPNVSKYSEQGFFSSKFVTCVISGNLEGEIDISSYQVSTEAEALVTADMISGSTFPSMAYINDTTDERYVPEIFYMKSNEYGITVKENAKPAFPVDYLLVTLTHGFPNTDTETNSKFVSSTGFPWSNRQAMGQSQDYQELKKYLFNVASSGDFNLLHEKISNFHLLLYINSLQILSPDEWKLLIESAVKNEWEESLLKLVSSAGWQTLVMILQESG

B1: Cdc48 (enzyme, yeast, UniProt P25694 1-835, looked up)
chain: MGEEHKPLLDASGVDPREEDKTATAILRRKKKDNMLLVDDAINDDNSVIAINSNTMDKLELFRGDTVLVKGKKRKDTVLIVLIDDELEDGACRINRVVRNNLRIRLGDLVTIHPCPDIKYATRISVLPIADTIEGITGNLFDVFLKPYFVEAYRPVRKGDHFVVRGGMRQVEFKVVDVEPEEYAVVAQDTIIHWEGEPINREDEENNMNEVGYDDIGGCRKQMAQIREMVELPLRHPQLFKAIGIKPPRGVLMYGPPGTGKTLMARAVANETGAFFFLINGPEVMSKMAGESESNLRKAFEEAEKNAPAIIFIDEIDSIAPKRDKTNGEVERRVVSQLLTLMDGMKARSNVVVIAATNRPNSIDPALRRFGRFDREVDIGIPDATGRLEVLRIHTKNMKLADDVDLEALAAETHGYVGADIASLCSEAAMQQIREKMDLIDLDEDEIDAEVLDSLGVTMDNFRFALGNSNPSALRETVVESVNVTWDDVGGLDEIKEELKETVEYPVLHPDQYTKFGLSPSKGVLFYGPPGTGKTLLAKAVATEVSANFISVKGPELLSMWYGESESNIRDIFDKARAAAPTVVFLDELDSIAKARGGSLGDAGGASDRVVNQLLTEMDGMNAKKNVFVIGATNRPDQIDPAILRPGRLDQLIYVPLPDENARLSILNAQLRKTPLEPGLELTAIAKATQGFSGADLLYIVQRAAKYAIKDSIEAHRQHEAEKEVKVEGEDVEMTDEGAKAEQEPEVDPVPYITKEHFAEAMKTAKRSVSDAELRRYEAYSQQMKASRGQFSNFNFNDAPLGTTATDNANSNNSAPSGAGAAFGSNAEEDDDLYS
B2: Ufd1 (wild type, purified without Npl4) (natural protein, UniProt P53044 1-361, looked up)
chain: MFSGFSSFGGGNGFVNMPQTFEEFFRCYPIAMMNDRIRKDDANFGGKIFLPPSALSKLSMLNIRYPMLFKLTANETGRVTHGGVLEFIAEEGRVYLPQWMMETLGIQPGSLLQISSTDVPLGQFVKLEPQSVDFLDISDPKAVLENVLRNFSTLTVDDVIEISYNGKTFKIKILEVKPESSSKSICVIETDLVTDFAPPVGYVEPDYKALKAQQDKEKKNSFGKGQVLDPSVLGQGSMSTRIDYAGIANSSRNKLSKFVGQGQNISGKAPKAEPKQDIKDMKITFDGEPAKLDLPEGQLFFGFPMVLPKEDEESAAGSKSSEQNFQGQGISLRKSNKRKTKSDHDSSKSKAPKSPEVIEID
B3: Ufd1^L55R (purified without Npl4) (natural protein, UniProt P53044 1-361, looked up)
chain: MFSGFSSFGGGNGFVNMPQTFEEFFRCYPIAMMNDRIRKDDANFGGKIFLPPSARSKLSMLNIRYPMLFKLTANETGRVTHGGVLEFIAEEGRVYLPQWMMETLGIQPGSLLQISSTDVPLGQFVKLEPQSVDFLDISDPKAVLENVLRNFSTLTVDDVIEISYNGKTFKIKILEVKPESSSKSICVIETDLVTDFAPPVGYVEPDYKALKAQQDKEKKNSFGKGQVLDPSVLGQGSMSTRIDYAGIANSSRNKLSKFVGQGQNISGKAPKAEPKQDIKDMKITFDGEPAKLDLPEGQLFFGFPMVLPKEDEESAAGSKSSEQNFQGQGISLRKSNKRKTKSDHDSSKSKAPKSPEVIEID

Columns and labels:
[1] = target: T1, Ufd1/Npl4 heterodimer (wild type); test: ATPase activity titration
Ufd1^L55R/Npl4 = target: T2, Ufd1^L55R/Npl4; test: ATPase activity titration
[2] = target: T3, Npl4 (wild type, purified without Ufd1); test: SEC

Binder	Kd [1] [nM]	Kd (Ufd1^L55R/Npl4) [nM]	binding result [2]
B1	1000	500	
B2			binds
B3			binds
